Reference: patent publication US8034904B2, “Anti-IGF-I receptor antibody” (Immunogen Inc., priority 2002, dated 2011)

Experiments:
[1] = biological target: biotinylated human IGF-I receptor; test: ELISA binding titration (Kd) with biotinylated IGF-I receptor
Experimental: The wells were next washed with TBS-T buffer and incubated with goat-anti-mouse-IgGH+L-antibody-horseradish peroxidase conjugate (100 μL; 0.5 μg/mL in blocking buffer), followed by washes and detection using ABTS/H2O2 substrate at 405 nm. The value of Kd was estimated by non-linear regression for one-site binding.
A similar binding titration was carried out using the Fab fragment of EM164 antibody, prepared by papain digestion of the antibody as described by E. Harlow and D. Lane (“Using Antibodies: A Laboratory Manual”; 1999, Cold Spring Harbor Laboratory Press, New York).

[2] = test system: Human pancreatic cancer BxPC-3 xenografts; test: BxPC-3 pancreatic cancer xenograft in SCID/ICR mice; format: in vivo, mouse
Experimental: Human pancreatic cancer xenografts were established in 5 week-old, female SCID/ICR mice (Taconic) by subcutaneous injections of 10^7 BxPC-3 cells in PBS (day 0). The mice bearing established tumors of 80 mm^3 were then treated with EM164 alone (13 injections of 0.8 mg/mouse, i.v., lateral tail vein, on days 12, 16, 19, 23, 26, 29, 36, 43, 50, 54, 58, 61 and 64), with gemcitabine alone (two injections of 150 mg/kg/mouse, i.p., on days 12 and 19), with a combination of gemcitabine and. EM164 following the above schedules, PBS alone, and a control antibody alone (following the same schedule as EM164) using five mice in each of the five treatment groups.

[3] = test system: insulin receptor substrate-1 (IRS-1); test: IGF-I-stimulated IRS-1 phosphorylation in MCF-7 cells (ELISA, associated p85 PI-3-kinase); format: cell-based, human
Experimental: In FIG. 5, MCF-7 cells were treated with 5 μg/mL antibody (EM164 or IR3) in serum-free medium for 2 h, followed by stimulation with 50 ng/mL IGF-I for 10 min at 37° C. Anti-IRS-1 antibody (rabbit polyclonal; Upstate Biotechnology) was indirectly captured by incubation with coated goat-anti-rabbit-IgG antibody on an ELISA plate, which was then used to capture IRS-1 from the cell lysate samples by overnight incubation at 4° C. The wells were then incubated with mouse monoclonal anti-p85-PI-3-kinase antibody (Upstate Biotechnology) for 4 h, followed by treatment with goat-anti-mouse-IgG-antibody-HRP conjugate for 30 min. The wells were then washed and detected using ABTS/H2O2 substrate (FIG. 5).

MCF-7 cells = test: Cell cycle analysis of MCF-7 cells (propidium iodide, flow cytometry); format: cell-based, human; conditions: IGF-I 20 ng/mL with or without EM164 20 μg/mL, 1 day
Experimental: The EM164 antibody caused growth arrest of cells in G0/G1 phase of cell cycle and abrogated the mitogenic effect of IGF-I. For cell cycle analysis, MCF-7 cells were treated with IGF-I (20 ng/mL) in the presence or absence of EM164 (20 μg/mL) for 1 day and then analyzed by propidium iodide staining and flow cytometry.

[4] = test system: SK-N-SH (neuroblastoma) cells; test: Growth and survival of SK-N-SH cells (MTT assay); format: cell-based, human
Experimental: (§1) Several human tumor cell lines were tested in serum-free conditions for their growth and survival response to IGF-I. These cell lines were treated with EM164 antibody in the presence of IGF-I, IGF-II, or serum, and their growth and survival responses were measured using an MTT assay after 2-4 days. Approximately 1500 cells were plated in a 96-well plate in regular medium with serum, which was replaced with serum-free medium the following day (either serum-free RPMI medium supplemented with transferrin and BSA, or phenol-red free medium as specified by Dufourny, B. et al., 1997, J. Biol. Chem., 272, 31163-31171). After one day of growth in serum-free medium, the cells were incubated with about 75 μL of 10 μg/mL antibody for 30 min.-3 h, followed by the addition of 25 μL of IGF-I (or IGF-II or serum) solution to obtain a final concentration of 10 ng/mL IGF-I, or 20 ng/mL IGF-II, or 0.04-10% serum. In some experiments, the cells were stimulated first with IGF-I for 15 min before the addition of EM164 antibody, or both IGF-I and EM164 antibody were added together. The cells were then allowed to grow for another 2-3 days. A solution of MTT (3-(4,5)-dimethylthiazol-2-yl)-2,5-diphenyltetrazolium bromide; 25 μL of a 5 mg/mL solution in PBS) was then added and the cells were returned to the incubator for 2-3 h. The medium was then removed and replaced by 100 μL DMSO, mixed, and the absorbance of the plate was measured at 545 nm.

human IGF-I receptor = test: FACS binding to cells overexpressing human IGF-I receptor; conditions: EM164 50-100 nM
Experimental: Incubation of EM164 antibody (50-100 nM) in 100 μL cold FACS buffer (1 mg/mL BSA in Dulbecco's MEM medium) was performed using cells overexpressing IGF-I receptor and using cells overexpressing insulin receptor (2×10^5 cells/mL) in a round-bottom 96-well plate for 1 h. The cells were pelleted by centrifugation and washed with cold FACS buffer by gentle flicking, followed by incubation with goat-anti-mouse-IgG-antibody-FITC conjugate (100 μL; 10 μg/mL in FACS buffer) on ice for 1 h. The cells were pelleted, washed, and resuspended in 120 μL of 1% formaldehyde solution in PBS. The plate was analyzed using a FACSCalibur reader (BD Biosciences).

[5] = test system: IGF-I receptor of goat fibroblast cells; test: Immunoprecipitation of IGF-I receptor from goat fibroblast cells; format: binding
From the text: (§2) A Western blot of the EM164 antibody immunoprecipitate was detected using a rabbit polyclonal anti-IGF-I receptor beta chain (C-terminus) antibody (Santa Cruz Biotechnology) and a goat-anti-rabbit-IgG-antibody-horseradish peroxidase conjugate, followed by washes and enhanced chemiluminescence (ECL) detection.

[6] = test system: IGF-I receptor of CHO cells; test: Immunoprecipitation of IGF-I receptor from CHO cells; format: binding; conditions: CHO cells (Chinese hamster)
From the text: as §2

A 375 (melanoma) cells = test: Growth and survival of A 375 cells (MTT assay); format: cell-based, human
Experimental: as §1

Colo 205 (colon) cells = test: Growth and survival of Colo 205 cells (MTT assay); format: cell-based, human
Experimental: as §1

[7] = 5-10 μg/mL EM164, 10 ng/mL IGF-I
[8] = 5-10 μg/mL EM164, MTT or colony formation assay

Sequence of biotinylated human IGF-I receptor (P08069 31-736 limits assumed): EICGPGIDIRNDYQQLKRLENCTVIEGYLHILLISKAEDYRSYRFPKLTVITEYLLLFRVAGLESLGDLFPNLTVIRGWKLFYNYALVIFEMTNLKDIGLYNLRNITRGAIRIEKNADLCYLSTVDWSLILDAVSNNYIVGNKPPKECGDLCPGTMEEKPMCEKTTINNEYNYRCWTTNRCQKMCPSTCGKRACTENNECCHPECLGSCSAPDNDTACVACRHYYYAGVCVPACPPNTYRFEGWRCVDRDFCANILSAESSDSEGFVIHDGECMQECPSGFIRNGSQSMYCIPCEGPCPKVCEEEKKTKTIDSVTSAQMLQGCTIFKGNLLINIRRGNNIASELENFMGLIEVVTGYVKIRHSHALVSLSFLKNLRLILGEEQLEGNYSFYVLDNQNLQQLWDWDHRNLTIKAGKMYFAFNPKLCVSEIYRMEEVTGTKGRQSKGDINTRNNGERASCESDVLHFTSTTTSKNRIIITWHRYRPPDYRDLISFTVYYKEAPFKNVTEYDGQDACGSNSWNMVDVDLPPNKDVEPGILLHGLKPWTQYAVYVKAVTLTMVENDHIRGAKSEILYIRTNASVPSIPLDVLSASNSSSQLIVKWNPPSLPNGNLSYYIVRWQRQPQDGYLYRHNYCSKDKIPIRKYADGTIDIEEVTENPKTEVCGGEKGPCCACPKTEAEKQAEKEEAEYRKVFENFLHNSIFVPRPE
Sequence of biotinylated human IGF-I receptor (P08069 741-935 limits assumed): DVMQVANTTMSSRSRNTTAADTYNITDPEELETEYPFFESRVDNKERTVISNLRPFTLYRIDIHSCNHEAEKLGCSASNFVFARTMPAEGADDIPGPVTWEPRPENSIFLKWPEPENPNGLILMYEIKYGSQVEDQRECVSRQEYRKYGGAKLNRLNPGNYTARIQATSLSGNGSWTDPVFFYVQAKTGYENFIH

B1: EM164: murine anti-IGF-I receptor monoclonal antibody, IgG1 with kappa light chain, hybridoma ATCC PTA-4457; heavy SEQ ID NO:7, light SEQ ID NO:8 (antibody)
heavy: QVQLQQSGAELVKPGASVKLSCKASGYTFTSYWMHWVKQRPGQGLEWIGEINPSNGRTNYNEKFKRKATLTVDKSSSTAYMQLSSLTSEDSAVYYFARGRPDYYGSSKWYFDVWGAGTTVTVSS
light: DVLMTQTPLSLPVSLGDQASISCRSSQSIVHSNVNTYLEWYLQKPGQSPKLLIYKVSNRFSGVPDRFSGSGSGTDFTLRISRVEAEDLGIYYCFQGSHVPPTFGGGTKLEIKR
modifications: antibody heavy chain; antibody light chain
[1]; ELISA titration, non-linear regression for one-site binding, read-out: dissociation constant (Kd)
  Kd: 0.1 nM
[1]; strong binding signals after prolonged 1-2 day washes
  koff rate: very slow
[2]; BxPC-3 xenografts
  day on which measurable tumor regrowth was seen in more than one animal: 43 days
[2]; EM164 0.8 mg/mouse i.v. x13, gemcitabine 150 mg/kg i.p. days 12 and 19, five mice per group
  total regression of tumor xenografts (animals): 4 of 5
[2]; P=0.029 (EM164) and 0.002 (combination), two-tailed T-test
  mean tumor volumes on day 74 in comparison with the control treatments: significantly smaller
[2]; another study, intraperitoneal injections
  growth of established BxPC-3 xenografts: inhibited the growth
[2]; mouse, in vivo
  inhibition of the growth of established BxPC-3 xenografts, intraperitoneal vs intravenous administration: equivalent inhibition
  inhibition of the growth of established BxPC-3 xenografts, murine vs humanized: equivalent inhibition
[3]; 5 μg/mL antibody 2 h, 50 ng/mL IGF-I 10 min, compared with IR3
  inhibition of IGF-1-stimulated IRS-1 phosphorylation: more effective
[3]; in the absence of IGF-I
  agonistic activity on IRS-1 phosphorylation: did not show any agonistic activity
MCF-7 cells
  cells in the G0/G1 phase: 77%
  cells in the S phase: 9%
[4]; 5-10 μg/mL EM164
  % Inhibition by EM164 antibody of Growth/survival of cells in 1.25-10% serum: 30-50%
[4]; [7]
  Inhibition by EM164 antibody of IGF-I-stimulated growth in serum-free medium: 85%
Human IGF-I receptor
  fluorescence shift (FACS): strong fluorescence shift
[5]
  binding to IGF-I receptor (immunoprecipitation): did not bind
[6]
  binding to IGF-I receptor (immunoprecipitation): did not bind
A 375 (melanoma) cells; [7]
  Inhibition by EM164 antibody of IGF-I-stimulated growth in serum-free medium: 90%
A 375 (melanoma) cells; [8]
  % Inhibition by EM164 antibody of Growth/survival of cells in 1.25-10% serum: No
Colo 205 (colon) cells; [7]
  Inhibition by EM164 antibody of IGF-I-stimulated growth in serum-free medium: 50%
Colo 205 (colon) cells; [8]
  % Inhibition by EM164 antibody of Growth/survival of cells in 1.25-10% serum: Yes
